Source: article PMC9712175

Biological target: extracellular domain (ECD) of human insulin-like growth factor-1 receptor (hIGF-1R) (human) (UniProt P08069)
Assay: other fluorescence titration

UniProt P08069, sequence (P08069 741-935): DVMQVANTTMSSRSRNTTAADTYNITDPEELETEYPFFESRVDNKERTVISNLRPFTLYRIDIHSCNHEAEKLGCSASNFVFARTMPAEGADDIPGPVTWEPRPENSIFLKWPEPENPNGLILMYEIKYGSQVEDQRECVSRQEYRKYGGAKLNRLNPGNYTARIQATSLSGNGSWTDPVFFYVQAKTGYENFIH

- Kd: 90 nM
Substance: full-length human insulin-like growth factor 1 (hIGF1) (from UniProt P05019 22-118) (ligand)
